Biological target: FMRP (mouse cerebellum) (UniProt P35922)
Assay: anti-FMRP IP, Kv1.2 blot, peptide competition
Conditions: reference: no peptide (control); sites S440,S441

In the case of “Kv1.2 (from UniProt P63141) 250 μM PhosKv436-457 (pS440/pS441) peptide added”, the other: reduction of co-IP'd Kv1.2 is reported as 75%.

From article PMC7473840, “Identification of a molecular locus for normalizing dysregulated GABA release from interneurons in the Fragile X brain” (Molecular Psychiatry, 2018)
